Experimental data reported in US12365710B2, “HMGB1 protein derivatives for the removal of biofilms” (RESEARCH INSTITUTE AT NATIONWIDE CHILDREN'S HOSPITAL, priority 2018, dated 2025).
Read-outs that look alike come from different tables or passages of the source.

Legend:
NTHI biofilms = format: in vivo, chinchilla; details: for reduction in CFU of NTHI: 0.2 nmol to middle ear at days 4 and 5 post-challenge, day 6, vs diluent
Procedure: FIGS. 8A-8F: rHMGB1 and mHMGB1 promote biofilm resolution in an experimental otitis media model. Diluent, 0.2 nmol rHMGB1, or 0.2 nmol mHMGB1 were delivered directly to middle ears of chinchillas at 4 and 5 days post-challenge with NTHI. Animals were sacrificed 24 h later, middle ears were imaged (FIG. 8C, representative images) and, based on the criteria described in (FIG. 8A, biofilm) and (FIG. 8B, inflammation), blindly scored for presence of biofilm (FIG. 8D) and inflammation (FIG. 8F). CFU of NTH1 present in the mucosal biomass were quantified (FIG. 8E). Means and SEM are plotted. **P<0.01, ****P<0.0001.
rHMGB1 and mHMGB1 disrupt biofilms in two distinct animal models but the inflammatory response is strongly attenuated with Cys to Ser mutations: Applicant tested both rHMGB1 and mHMGB1 for their ability to treat middle ear infection and the corresponding inflammatory response using a well-established chinchilla model of experimental OM due to NTHI49,67,68 wherein adhered mucosal biofilm formation plays a key role in pathogenesis (FIG. 8A). The middle ear of mixed sex, outbred adult chinchillas were inoculated with 1000 CFU NTHI by transbullar injection. At days 4 and 5 post-challenge, at which time there is abundant biofilm present in the middle ear space, […] of rHMGB1, mHMGB1, or diluent was delivered directly to the middle ear (2 total treatments). On day 6, animals were sacrificed and middle ears were imaged and blindly scored for biofilm that remained (FIG. 8A) and mucosal inflammation (FIG. 8B). […] In contrast, MEFs from mHMGB1-treated animals had increased anti-inflammatory cytokines [IL-4 (2-fold), IL-10 (5-fold)] […] Next, Applicant determined whether rHMGB1 or mHMGB1 could prevent or […] biofilm development. For prevention, adult C57BL/6 mice were challenged with 10^7 CFU of Bc intratracheally (i.t.), and 0.2 nmol of rHMGB1 or mHMGB1 was added simultaneously. After 18 h, mice were euthanized, and bronchoalveolar lavage (BAL) and lungs were collected. Bc formed aggregates that were readily visible in lung sections probed with Bc antibody (FIG. 7A). Tissue was homogenized and CFUs were enumerated. […] This same animal model was then used to investigate lung damage 72 h post-challenge with Bc and administration of rHMGB1 or mHMGB1. Lungs were collected and tissue was fixed, embedded in paraffin, sectioned, and stained with Haematoxylin and Eosin (H&E). […] Next, Applicant assessed the ability of rHMGB1 and mHMGB1 to treat established Bc infection. Mice were challenged as above and 0.2 nmol rHMGB1 or mHMGB1 was administered 24 h later. 48 h after treatment, mice were euthanized and BAL and lungs were collected and processed as above. […]

B. cenocepacia = format: in vivo, C57BL/6 mice; details: 0.2 nmol administered 24 h after challenge, collected 48 h after treatment
Procedure: (§1) FIGS. 7A-7G: HMGB1 promotes clearance of S. cenocepaca from mice without inducing sepsis. C57BL/6 mice were challenged with 10^7 CFU intratracheally, and either simultaneously (prevention) or 24 h later (treatment) received 0.2 nmol of HMGB1 valiant. (FIG. 7A) Aggregates of B. cenocepacia were visible by fluorescence microscopy in lung sections probed with an α-B. cenocepacia antibody. For prevention, (FIG. 7B) bronchoalveolar lavage (BAL) collected 18 h post-inoculation (hpi) was analyzed for CFU. (FIG. 7C) Neutrophils in BAL were quantified by differential cell counting. (FIG. 7D) Lung tissue collected 72hpi was fixed, embedded, sectioned, and stained with hematoxylin & eosin (10× magnification). For treatment, 72hpi (FIG. 7E) CFUs were quantified in BAL. (FIG. 7F) Neutrophil recruitment was analyzed 24 h after intraperitoneal (i.p.) administration of HMGB1 valiants by fluorescence-activated cell sorting of peritoneal lavage stained with α-CD45, α-CD11b, and αLy-6G. (FIG. 7G) Serum TNF-α. was measured by ELISA in mice injected i.p. with 0.2 nmol HMGB1 valiants, 5 mg/kg LPS, or both. LoD: limit of detection. Bars represent SD. *P<0.05.
rHMGB1 and mHMGB1 disrupt biofilms in two distinct animal models but the inflammatory response is strongly attenuated with Cys to Ser mutations: Applicant tested both rHMGB1 and mHMGB1 for their ability to treat middle ear infection and the corresponding inflammatory response using a well-established chinchilla model of experimental OM due to NTHI49,67,68 wherein adhered mucosal biofilm formation plays a key role in pathogenesis (FIG. 8A). […] On day 6, animals were sacrificed and middle ears were imaged and blindly scored for biofilm that remained (FIG. 8A) and mucosal inflammation (FIG. 8B). […] Next, Applicant determined whether rHMGB1 or mHMGB1 could prevent or aggregate biofilm development. […] Bc formed aggregates that were readily visible in lung sections probed with Bc antibody (FIG. 7A). […] Next, Applicant assessed the ability of rHMGB1 and mHMGB1 to treat established Bc infection. […]

[1] = tested on: biofilms present in CF sputum; assay: disruption of CF sputum (optical density of surrounding media); details: CF sputum suspensions in PBS, 37° C.; compared with Pulmozyme and anti-DNABII
Procedure: FIGS. 10A-10B: HMGB1 In specimens from biofilm-associated diseases. (FIG. 10A) Sections of OCT-embedded mucosal biomass from an NTHI-infected chinchilla middle ear were co-labeled for HMGB1 and DNABII protein for immunofluorescence microscopy. Double stranded eDNA was labeled with DAPI (white). (FIG. 10B) CF sputum incubated with antibiofilm treatments (PBS, 1:10 rabbit a-1HFEc, serum, 100 U/ml Pulmozyme® (DNase), 1 mM rHMGB1) at 37° C. for […] and optical density of surrounding media was measured at 0 hour and 2 hour.
HMGB1 disrupts biofilms present in clinical specimens: Biofilms at chronic disease sites (e.g. CF lung), consist of multiple species and by nature are difficult to eradicate. It has been shown that anti-DNABII antibodies to disrupt biofilms present in CF sputum.

serum TNF-alpha (TNF-α) = format: in vivo, mice; details: 24 h; for serum TNF elicited on their own: 0.2 nmol endotoxin free protein i.p., naive mice; for additional pro-inflammatory signaling in LPS-primed mice: 0.2 nmol i.p. with LPS 5 mg/kg
Procedure: as §1
Mice were monitored for 24 h for signs of sepsis, then serum TNF-alpha (TNF-α) levels were measured by ELISA as a surrogate for sepsis induction. […] It has been reported, that compared to our doses, >450-fold for B Box alone, or 4 doses of 2-fold greater amounts of rHMGB1 in 40 h with lipopolysaccharide (LPS)-primed mice20 are required to induce sepsis. In addition, these endotoxin-free polypeptides were tested for anti-biofilm activity in vitro as described above and found to maintain full function against UPEC and Bc biofilms (data not shown).

Molecule | reduction in CFU of NTHI (NTHI biofilms) | increased IL-1β in middle ear fluids (NTHI biofilms; in vivo) | increased IL-17A in middle ear fluids (NTHI biofilms; in vivo) | Bc CFU in lungs / BAL (B. cenocepacia) | Bc CFU in lungs / BAL (B. cenocepacia; listed as HMGB1) | disruption of CF sputum [1] | serum TNF elicited on their own (serum TNF-alpha (TNF-α)) | additional pro-inflammatory signaling in LPS-primed mice (serum TNF-alpha (TNF-α))
rHMGB1: tagless human recombinant full length HMGB1 (1-215) expressed in E. coli | ~1000 fold | 3 fold | 2 fold | significantly fewer Bc in their lungs | significantly decreased | can disrupt biofilms present in CF sputum | neither rHMGB1, B Box, nor mB Box elicited detectable TNF | none induced additional pro-inflammatory signaling
B-linker Box: HMGB1 B Box with N- and C-terminal linker (80-179; 80 to 176 in b258), 97 amino acid (protein, UniProt P09429 80-179, looked up, fragment) PPKGETKKKFKDPNAPKRPPSAFFLFCSEYRPKIKGEHPGLSIGDVAKKLGEMWNNTAADDKQPYEKKAAKLKEKYEKDIAAYRAKGKPDAAKKGVVKAE | – | – | – | – | – | disrupted sputum effectively | neither rHMGB1, B Box, nor mB Box elicited detectable TNF | none induced additional pro-inflammatory signaling
mHMGB1: engineered C45S variant of full length rHMGB1 that mimics the reduced form of HMGB1 (protein, UniProt P09429 1-215, looked up, variant C45S, full-length, engineered C45S variant of full length rHMGB1 that mimics the reduced form of HMGB1) MGKGDPKKPRGKMSSYAFFVQTCREEHKKKHPDASVNFSEFSKKSSERWKTMSAKEKGKFEDMAKADKARYEREMKTYIPPKGETKKKFKDPNAPKRPPSAFFLFCSEYRPKIKGEHPGLSIGDVAKKLGEMWNNTAADDKQPYEKKAAKLKEKYEKDIAAYRAKGKPDAAKKGVVKAEKSKKKKEEEEDEEDEEDEEEEEDEEDEDEEEDDDDE | ~1000 fold | – | – | significantly fewer Bc in their lungs | – | – | – | –
